Laboratory results: the supplement of paper PMC7125110
± gives the standard error. This sample holds only a part of the variants without activity.

B1: glmS ribozyme (parent)
chain: AUAAAAGCGCCAGAACUACAGAAAUGUAGUUGACGAGGAGGAGGUUUAUCGAAUUUUCGGCGGAUGCCUCCAAA

Key:
Conditions in all cases: with glucosamine-6-phosphate
[1] = variants of: B1; assay: self-cleavage kobs at 40 uM GlcN6P; higher = faster cleavage; RNA array
Procedure, shortened: (§1)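 A hybridised Cy3 probe tracked barcoded ribozyme variants, transcribed in situ by E. coli RNA polymerase on sequenced MiSeq chips, at 37 °C. The variants received 40 μM to 10 mM glucosamine-6-phosphate in HEPES/KCl/Mg(OAc)2 buffer. kobs came from decay fits and kcat and KM from weighted Michaelis–Menten fits.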

[2] = variants of: B1; assay: self-cleavage kobs at 160 uM GlcN6P; higher = faster cleavage; RNA array
Procedure, shortened: as §1

[3] = variants of: B1; assay: self-cleavage kobs at 640 uM GlcN6P; higher = faster cleavage; RNA array
Procedure, shortened: as §1

[4] = variants of: B1; assay: self-cleavage kobs at 2500 uM GlcN6P; higher = faster cleavage; RNA array
Procedure, shortened: as §1

[5] = variants of: B1; assay: self-cleavage kobs at 10000 uM GlcN6P; higher = faster cleavage; RNA array
Procedure, shortened: as §1

Variant | self-cleavage kobs at 40 uM GlcN6P [1] [s⁻¹] | self-cleavage kobs at 160 uM GlcN6P [2] [s⁻¹] | self-cleavage kobs at 640 uM GlcN6P [3] [s⁻¹] | self-cleavage kobs at 2500 uM GlcN6P [4] [s⁻¹] | self-cleavage kobs at 10000 uM GlcN6P [5] [s⁻¹]
C8A A53C | < 1e-05 | < 1e-05 | < 1e-05 | < 1e-05 | < 1e-05
C16A G44A | < 1e-05 | < 1e-05 |  |  | 
A12U U46C G59A | < 1e-05 |  |  |  | 5.26e-05 ± 1.6e-05
A33C A48G | < 1e-05 | < 1e-05 | < 1e-05 |  | < 1e-05
G7A G13C G38A | < 1e-05 |  |  | < 1e-05 | 
G7U U45G C61A | < 1e-05 |  |  |  | < 1e-05
A33C G44C U45C | < 1e-05 |  | < 1e-05 |  | < 1e-05
A12G A48C | < 1e-05 |  |  |  | 
C10A G43A U45C | < 1e-05 |  |  |  | 
A12U U45G U55C | 0.000356 ± 7.4e-05 |  |  |  | 0.00793 ± 0.002
C34U G63U | < 1e-05 | < 1e-05 | < 1e-05 | < 1e-05 | 
G13C A48U | < 1e-05 |  |  | < 1e-05 | < 1e-05
A12G C16G G43C | < 1e-05 |  |  |  | 
U54C C70A | 3e-05 ± 1.2e-05 | 5.86e-05 ± 2.8e-05 | 0.000124 ± 2.4e-05 | 0.000512 ± 0.00011 | 0.000206 ± 2.9e-05
A52G A64U | < 1e-05 | < 1e-05 |  |  | 
G7U G38U C71A | < 1e-05 |  |  |  | < 1e-05
A6U U55G G62C C70A | < 1e-05 |  |  |  | 
U55C C68G | < 1e-05 |  |  |  | < 1e-05
G35A U47G | < 1e-05 | < 1e-05 | < 1e-05 | < 1e-05 | < 1e-05
A14G C19A A20G G21A G60A | < 1e-05 |  |  |  | 
C16U U49G G59C G62U C67A | < 1e-05 |  |  |  | 
A12C A39C C67G | < 1e-05 |  |  |  | 
G9A G59U A64U U65C | < 1e-05 |  |  |  | < 1e-05
A14U G37A A39C G59C | < 1e-05 |  |  |  | 
G37C U45C G59U C68G | < 1e-05 |  | < 1e-05 |  | < 1e-05
A33U G38A G41C U54G | < 1e-05 |  |  |  | 
G59C C61U G66U | < 1e-05 |  |  |  | < 1e-05
A14C A15U U47C | < 1e-05 |  |  |  | 
A42U A52U A64U G66U | < 1e-05 |  |  |  | 
